Assay results taken from publication PMC11463468.

Assays:
MBD-Halo-AF660 [1] = biological target: T1, MBD-Halo-AF660 (Homo sapiens, UniProt Q9UIS9 1-77); assay: single-molecule TIRF
T1 sequence: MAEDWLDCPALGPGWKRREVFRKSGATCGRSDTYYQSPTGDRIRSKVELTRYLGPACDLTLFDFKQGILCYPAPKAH

MBD-Halo-AF660 [2] = biological target: T1, MBD-Halo-AF660; assay: single-molecule TIRF; remark: listed apart in the source
MBD-Halo-AF660 [3] = biological target: T1, MBD-Halo-AF660; assay: single-molecule TIRF; remark: listed apart in the source
MBD-Halo-AF660 [4] = biological target: T1, MBD-Halo-AF660; assay: single-molecule TIRF; remark: listed apart in the source
MBD-Halo-AF660 [5] = biological target: T1, MBD-Halo-AF660; assay: single-molecule TIRF; remark: listed apart in the source
MBD-Halo-AF660 [6] = biological target: T1, MBD-Halo-AF660; assay: single-molecule TIRF; remark: listed apart in the source
MBD-Halo-AF660 [7] = biological target: T1, MBD-Halo-AF660; assay: single-molecule TIRF; remark: listed apart in the source
MBD-Halo-AF660 [8] = biological target: T1, MBD-Halo-AF660; assay: single-molecule TIRF; remark: listed apart in the source
MBD-Halo-AF660 [9] = biological target: T1, MBD-Halo-AF660; assay: EMSA
[10] = biological target: T2, MBD-Halo (MBD1 MBD-GGGSG-HaloTag) (Homo sapiens, UniProt Q9UIS9 1-77); assay: EMSA
T2 sequence: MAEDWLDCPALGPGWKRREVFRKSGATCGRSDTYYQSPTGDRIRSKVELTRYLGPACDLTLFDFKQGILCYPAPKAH

MBD-Halo-AF660 [11] = biological target: T1, MBD-Halo-AF660; assay: single-molecule TIRF; remark: listed apart in the source
MBD-Halo-AF660 [12] = biological target: T1, MBD-Halo-AF660; assay: single-molecule TIRF; remark: listed apart in the source
MBD-Halo-AF660 [13] = biological target: T1, MBD-Halo-AF660; assay: single-molecule TIRF; remark: listed apart in the source
MBD-Halo-AF660 [14] = biological target: T1, MBD-Halo-AF660; assay: single-molecule TIRF; remark: listed apart in the source
MBD-Halo-AF660 [15] = biological target: T1, MBD-Halo-AF660; assay: single-molecule TIRF; remark: listed apart in the source
MBD-Halo-AF660 [16] = biological target: T1, MBD-Halo-AF660; assay: single-molecule TIRF; remark: listed apart in the source

B1: SM single-molecule (M7-A39m-CPO) (dsDNA)
DNA 1: GTCTTCCTGCTGATGCAATCCGCTAGGTCGCGAGTCTCCGCCGCGAGAGGGCCGG
DNA 2: CCGGCCCTCTCGCGGCGGAGACTCGCGACCTAGCGGATT
DNA 3: ATAATTAATAGCATCAGCAGGAAGAC
modifications: 5mC strand 1: 21,29,31,39,42,44,53; strand 2: 2,11,13,16,24,26,34
Does B1 bind (MBD-Halo-AF660 [1])?
Result: binds

B2: M7-A39-CP (dsDNA)
DNA 1: GTCTTCCTGCTGATGCAATCCGCTAGGTCGCGAGTCTCCGCCGCGAGAGGGCCGG
DNA 2: CCGGCCCTCTCGCGGCGGAGACTCGCGACCTAGCGGATT
DNA 3: GCATCAGCAGGAAGAC
modifications: 5mC strand 1: 21,29,31,39,42,44,53
Does B2 bind (MBD-Halo-AF660 [2])?
Result: no binding

B3: M7-CP (structured_DNA)
DNA 1: GTCTTCCTGCTGATGCAATCCGCTAGGTCGCGAGTCTCCGCCGCGAGAGGGCCGG
DNA 2: GCATCAGCAGGAAGAC
modifications: 5mC strand 1: 21,29,31,39,42,44,53
Does B3 bind (MBD-Halo-AF660 [3])?
Result: binds

B4: M4a-A17O-CP (mixed)
DNA 1: GTCTTCCTGCTGATGCAATCCGCTAGGTCGCGAGTCTCCGCCGCGAGAGGGCCGG
DNA 2: CTTATCTGTTTCGCGACCTAGCGGATT
DNA 3: GCATCAGCAGGAAGAC
modifications: 5mC strand 1: 29,31,42,44
Does B4 bind (MBD-Halo-AF660 [4])?
Result: binds

B5: M0-CP (structured_DNA)
DNA 1: GTCTTCCTGCTGATGCAATCCGCTAGGTCGCGAGTCTCCGCCGCGAGAGGGCCGG
DNA 2: GCATCAGCAGGAAGAC
Does B5 bind (MBD-Halo-AF660 [2])?
Result: no binding

B6: M2c-A39m-CP (dsDNA)
DNA 1: GTCTTCCTGCTGATGCAATCCGCTAGGTCGCGAGTCTCCGCCGCGAGAGGGCCGG
DNA 2: CCGGCCCTCTCGCGGCGGAGACTCGCGACCTAGCGGATT
DNA 3: GCATCAGCAGGAAGAC
modifications: 5mC strand 1: 42,53; strand 2: 2,11,13,16,24,26,34
Does B6 bind (MBD-Halo-AF660 [2])?
Result: no binding

B7: M1b-A39m-CP (dsDNA)
DNA 1: GTCTTCCTGCTGATGCAATCCGCTAGGTCGCGAGTCTCCGCCGCGAGAGGGCCGG
DNA 2: CCGGCCCTCTCGCGGCGGAGACTCGCGACCTAGCGGATT
DNA 3: GCATCAGCAGGAAGAC
modifications: 5mC strand 1: 53; strand 2: 2,11,13,16,24,26,34
Does B7 bind (MBD-Halo-AF660 [2])?
Result: no binding

B8: M2a-A39m-CP (dsDNA)
DNA 1: GTCTTCCTGCTGATGCAATCCGCTAGGTCGCGAGTCTCCGCCGCGAGAGGGCCGG
DNA 2: CCGGCCCTCTCGCGGCGGAGACTCGCGACCTAGCGGATT
DNA 3: GCATCAGCAGGAAGAC
modifications: 5mC strand 1: 29,31; strand 2: 2,11,13,16,24,26,34
Does B8 bind (MBD-Halo-AF660 [5])?
Result: binds

B9: M7-A39O-CP (mixed)
DNA 1: GTCTTCCTGCTGATGCAATCCGCTAGGTCGCGAGTCTCCGCCGCGAGAGGGCCGG
DNA 2: CTTATCTGTTCCGGCCCTCTCGCGGCGGAGACTCGCGACCTAGCGGATT
DNA 3: GCATCAGCAGGAAGAC
modifications: 5mC strand 1: 21,29,31,39,42,44,53
Does B9 bind (MBD-Halo-AF660 [2])?
Result: no binding

B10: M7-A39m-CP (dsDNA)
DNA 1: GTCTTCCTGCTGATGCAATCCGCTAGGTCGCGAGTCTCCGCCGCGAGAGGGCCGG
DNA 2: CCGGCCCTCTCGCGGCGGAGACTCGCGACCTAGCGGATT
DNA 3: GCATCAGCAGGAAGAC
modifications: 5mC strand 1: 21,29,31,39,42,44,53; strand 2: 2,11,13,16,24,26,34
Does B10 bind (MBD-Halo-AF660 [6])?
Result: binds

B11: M3a-A39m-CP (dsDNA)
DNA 1: GTCTTCCTGCTGATGCAATCCGCTAGGTCGCGAGTCTCCGCCGCGAGAGGGCCGG
DNA 2: CCGGCCCTCTCGCGGCGGAGACTCGCGACCTAGCGGATT
DNA 3: GCATCAGCAGGAAGAC
modifications: 5mC strand 1: 39,42,44; strand 2: 2,11,13,16,24,26,34
Does B11 bind (MBD-Halo-AF660 [7])?
Result: binds

B12: M4a-CPO (structured_DNA)
DNA 1: GTCTTCCTGCTGATGCAATCCGCTAGGTCGCGAGTCTCCGCCGCGAGAGGGCCGG
DNA 2: ATAATTAATAGCATCAGCAGGAAGAC
modifications: 5mC strand 1: 29,31,42,44
Does B12 bind (MBD-Halo-AF660 [8])?
Result: binds

B13: SM 55 bp (M7/M7_rev) (dsDNA)
DNA 1: GTCTTCCTGCTGATGCAATCCGCTAGGTCGCGAGTCTCCGCCGCGAGAGGGCCGG
DNA 2: CCGGCCCTCTCGCGGCGGAGACTCGCGACCTAGCGGATTGCATCAGCAGGAAGAC
modifications: 5mC strand 1: 21,29,31,39,42,44,53; strand 2: 2,11,13,16,24,26,34
What does the source list for B13?
binding result (MBD-Halo-AF660 [9]): binds; binding result [10]: binds

B14: M4a-CP (structured_DNA)
DNA 1: GTCTTCCTGCTGATGCAATCCGCTAGGTCGCGAGTCTCCGCCGCGAGAGGGCCGG
DNA 2: GCATCAGCAGGAAGAC
modifications: 5mC strand 1: 29,31,42,44
Does B14 bind (MBD-Halo-AF660 [11])?
Result: binds

B15: M7-A17O-CPO (mixed)
DNA 1: GTCTTCCTGCTGATGCAATCCGCTAGGTCGCGAGTCTCCGCCGCGAGAGGGCCGG
DNA 2: CTTATCTGTTTCGCGACCTAGCGGATT
DNA 3: ATAATTAATAGCATCAGCAGGAAGAC
modifications: 5mC strand 1: 21,29,31,39,42,44,53
Does B15 bind (MBD-Halo-AF660 [12])?
Result: binds

B16: M7-CPO (structured_DNA)
DNA 1: GTCTTCCTGCTGATGCAATCCGCTAGGTCGCGAGTCTCCGCCGCGAGAGGGCCGG
DNA 2: ATAATTAATAGCATCAGCAGGAAGAC
modifications: 5mC strand 1: 21,29,31,39,42,44,53
Does B16 bind (MBD-Halo-AF660 [13])?
Result: binds

B17: M7-A17O-CP (mixed)
DNA 1: GTCTTCCTGCTGATGCAATCCGCTAGGTCGCGAGTCTCCGCCGCGAGAGGGCCGG
DNA 2: CTTATCTGTTTCGCGACCTAGCGGATT
DNA 3: GCATCAGCAGGAAGAC
modifications: 5mC strand 1: 21,29,31,39,42,44,53
Does B17 bind (MBD-Halo-AF660 [14])?
Result: binds

B18: M4a-A39m-CP (dsDNA)
DNA 1: GTCTTCCTGCTGATGCAATCCGCTAGGTCGCGAGTCTCCGCCGCGAGAGGGCCGG
DNA 2: CCGGCCCTCTCGCGGCGGAGACTCGCGACCTAGCGGATT
DNA 3: GCATCAGCAGGAAGAC
modifications: 5mC strand 1: 29,31,42,44; strand 2: 2,11,13,16,24,26,34
Does B18 bind (MBD-Halo-AF660 [15])?
Result: binds

Does ATAATTAATAGCATCAGCAGGAAGAC (ssDNA) [CPO alone (NTC)] bind (MBD-Halo-AF660 [16])?
Result: no binding
